Substitutions are numbered along the chain they refer to. Numbers in names are those of the source.
T1: human IL-5Rα expressed on the K562/IL-5Rα cell line (human, UniProt Q01344 21-420)
T1 sequence (looked up): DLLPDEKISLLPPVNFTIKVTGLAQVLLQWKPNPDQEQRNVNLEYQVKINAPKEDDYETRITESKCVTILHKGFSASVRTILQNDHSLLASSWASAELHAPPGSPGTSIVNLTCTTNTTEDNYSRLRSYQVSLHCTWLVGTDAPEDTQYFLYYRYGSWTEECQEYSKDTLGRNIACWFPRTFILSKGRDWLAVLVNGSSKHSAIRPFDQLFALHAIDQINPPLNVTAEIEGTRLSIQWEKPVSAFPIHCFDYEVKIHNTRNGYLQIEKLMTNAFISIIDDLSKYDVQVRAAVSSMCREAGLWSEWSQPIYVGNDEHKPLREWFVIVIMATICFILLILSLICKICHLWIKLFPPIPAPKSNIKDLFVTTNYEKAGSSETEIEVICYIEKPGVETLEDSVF

T2: hIL-5Rα, purified recombinant protein (human, UniProt Q01344 21-342, limits assumed)
T2 construct: Soluble antigen of the Octet experiments
T2 sequence (looked up): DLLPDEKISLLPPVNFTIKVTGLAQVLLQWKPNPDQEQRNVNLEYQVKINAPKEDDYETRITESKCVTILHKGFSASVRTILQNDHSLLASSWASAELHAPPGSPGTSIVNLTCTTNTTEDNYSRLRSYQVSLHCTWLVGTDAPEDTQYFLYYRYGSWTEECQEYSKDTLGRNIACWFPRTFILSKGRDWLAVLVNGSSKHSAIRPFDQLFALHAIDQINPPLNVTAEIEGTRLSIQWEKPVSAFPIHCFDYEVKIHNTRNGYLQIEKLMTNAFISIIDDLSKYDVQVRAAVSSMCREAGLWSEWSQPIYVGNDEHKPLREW

B1: IL-5Rα×CD3ε-Diabody-Fc (bispecific antibody)
chain 1: DIQMTQSPSTLSASVGDRVTITCKASQNVGTAVAWYQQKPGKAPKLLIYWASTRHTGVPDRFSGSGSGTDFTLTISSLQPDDFATYYCQQFGRYPYTFGSGTKVEVKGGGSGGGGEVQLVESGGGLVQPKGSLKLSCAASGFTFNTYAMNWVRQAPGKGLEWVARIRSKYNNYATYYADSVKDRFTISRDDSQSILYLQMNNLKTEDTAMYYCVRHGNFGNSYVSWFAYWGQGTLVTVSSGCPPCPAPEFEGGPSVFLFPPKPKDTLMISRTPEVTCVVVAVSHEDPEVKFNWYVDGVEVHNAKTKPREEQYNSTYRVVSVLTVLHQDWLNGKEYKCKVSNKALPAPIEKTISKAKGQPREPQVYTLPPSRDELTENQVSLTCLVKGFYPSDIAVEWESNGQPENNYKTTPPVLDSDGSFFLYSWLTVDKSRWQQGNVFSCSVMHEALHNHYTQKSLSLSPGK
chain 2: QAVVTQESALTTSPGETVTLTCRSSTGAVTTSNYANWVQEKPDHLFTGLIGGTNKRAPGVPARFSGSLIGDKAALTITGAQTEDEAIYFCALWYSNLWVFGGGTKLTVLGGGSGGGGQVQLVQSGAEVKKPGSSVKVSCKASGYTFTSYWINWVRQAPGQGLEWIGHIYPNKNENYYNHKFKDKATLTVDKSTNTAYMELSSLRSEDTAVYYCTREFYGRQYYQAMDYWGQGTTLTVSSGCPPCPAPEFEGGPSVFLFPPKPKDTLMISRTPEVTCVVVAVSHEDPEVKFNWYVDGVEVHNAKTKPREEQYNSTYRVVSVLTVLHQDWLNGKEYKCKVSNKALPAPIEKTISKAKGQPREPRVYTLPPSRDELTKNQVSLTCLVKGFYPSDIAVEWESNGQPENNYKTTPPVLVSDGSFTLYSKLTVDKSRWQQGNVFSCSVMHEALHNHYTQKSLSLSPGK
notes: Built from 5R65.7 (anti-IL-5Rα) and humanized SP34 (anti-CD3ε); Heterodimeric IgG1 Fc with EW-RVT and L234F/L235E/D265A (FEA) mutations
B2: IL-5Rα×CD3ε-scFv(L)/scFv-Fc (bispecific antibody, human IgG1)
chain 1: QAVVTQESALTTSPGETVTLTCRSSTGAVTTSNYANWVQEKPDHLFTGLIGGTNKRAPGVPARFSGSLIGDKAALTITGAQTEDEAIYFCALWYSNLWVFGGGTKLTVLGGGGSGGGGSGGGGSEVQLVESGGGLVQPKGSLKLSCAASGFTFNTYAMNWVRQAPGKGLEWVARIRSKYNNYATYYADSVKDRFTISRDDSQSILYLQMNNLKTEDTAMYYCVRHGNFGNSYVSWFAYWGQGTLVTVSSEPKSCDKTHTCPPCPAPEFEGGPSVFLFPPKPKDTLMISRTPEVTCVVVAVSHEDPEVKFNWYVDGVEVHNAKTKPREEQYNSTYRVVSVLTVLHQDWLNGKEYKCKVSNKALPAPIEKTISKAKGQPREPQVYTLPPSRDELTENQVSLTCLVKGFYPSDIAVEWESNGQPENNYKTTPPVLDSDGSFFLYSWLTVDKSRWQQGNVFSCSVMHEALHNHYTQKSLSLSPGK
chain 2: DIQMTQSPSTLSASVGDRVTITCKASQNVGTAVAWYQQKPGKAPKLLIYWASTRHTGVPDRFSGSGSGTDFTLTISSLQPDDFATYYCQQFGRYPYTFGSGTKVEVKGGGGSGGGGSGGGGSQVQLVQSGAEVKKPGSSVKVSCKASGYTFTSYWINWVRQAPGQGLEWIGHIYPNKNENYYNHKFKDKATLTVDKSTNTAYMELSSLRSEDTAVYYCTREFYGRQYYQAMDYWGQGTTLTVSSEPKSCDKTHTCPPCPAPEFEGGPSVFLFPPKPKDTLMISRTPEVTCVVVAVSHEDPEVKFNWYVDGVEVHNAKTKPREEQYNSTYRVVSVLTVLHQDWLNGKEYKCKVSNKALPAPIEKTISKAKGQPREPRVYTLPPSRDELTKNQVSLTCLVKGFYPSDIAVEWESNGQPENNYKTTPPVLVSDGSFTLYSKLTVDKSRWQQGNVFSCSVMHEALHNHYTQKSLSLSPGK
notes: Built from 5R65.7 and humanized SP34 scFvs with (G4S)3 linkers and an IgG1 hinge; Heterodimeric IgG1 Fc with EW-RVT and FEA mutations; also called IL-5Rα×CD3α-scFv(L)/scFv-Fc
B3: IL-5Rα×CD3ε-IgG analog (bispecific antibody)
heavy 1: QVQLVQSGAEVKKPGSSVKVSCKASGYTFTSYWINWVRQAPGQGLEWIGHIYPNKNENYYNHKFKDKATLTVDKSTNTAYMELSSLRSEDTAVYYCTREFYGRQYYQAMDYWGQGTTLTVSSASTKGPSVFPLAPSSKSTSGGTAALGCLVKDYFPEPVTVSWNSGALTSGVHTFPAVLQSSGLYSLSSVVTVPSSSLGTQTYICNVNHKPSNTKVDKKVEPKSCDKTHTCPPCPAPEFEGGPSVFLFPPKPKDTLMISRTPEVTCVVVAVSHEDPEVKFNWYVDGVEVHNAKTKPREEQYNSTYRVVSVLTVLHQDWLNGKEYKCKVSNKALPAPIEKTISKAKGQPREPRVYTLPPSRDELTKNQVSLTCLVKGFYPSDIAVEWESNGQPENNYKTTPPVLVSDGSFTLYSKLTVDKSRWQQGNVFSCSVMHEALHNHYTQKSLSLSPGK
light: DIQMTQSPSTLSASVGDRVTITCKASQNVGTAVAWYQQKPGKAPKLLIYWASTRHTGVPDRFSGSGSGTDFTLTISSLQPDDFATYYCQQFGRYPYTFGSGTKVEVKRTVAAPSVFIFPPSDEQLKSGTASVKCLLNNFYPREAKVQWKVDNALQSGNSQESVTEQDSKDSTYSLSSTLTLSKADYEKHKVYACEVTHQGLSSPVTKSFNRGEC
heavy 2: not shown
chain: QAVVTQESALTTSPGETVTLTCRSSTGAVTTSNYANWVQEKPDHLFTGLIGGTNKRAPGVPARFSGSLIGDKAALTITGAQTEDEAIYFCALWYSNLWVFGGGTKLTVLRTVAAPSVFIFPPSDEQLKSGTASVECLLNNFYPREAKVQWKVDNALQSGNSQESVTEQDSKDSTYSLSSTLTLSKADYEKHKVYACEVTHQGLSSPVTKSFNRGEC
notes: Four-chain molecule: SP34 heavy and light chains and 5R65.7 heavy and light chains, with complementary CH1/CL mutations, EW-RVT and FEA
B4: IL-5Rα×CD3ε-BiTE(L)/scFv-Fc (bispecific antibody, human IgG1)
chain 1: DIQMTQSPSTLSASVGDRVTITCKASQNVGTAVAWYQQKPGKAPKLLIYWASTRHTGVPDRFSGSGSGTDFTLTISSLQPDDFATYYCQQFGRYPYTFGSGTKVEVKGGGGSGGGGSGGGGSQVQLVQSGAEVKKPGSSVKVSCKASGYTFTSYWINWVRQAPGQGLEWIGHIYPNKNENYYNHKFKDKATLTVDKSTNTAYMELSSLRSEDTAVYYCTREFYGRQYYQAMDYWGQGTTLTVSSGGGGSQAVVTQESALTTSPGETVTLTCRSSTGAVTTSNYANWVQEKPDHLFTGLIGGTNKRAPGVPARFSGSLIGDKAALTITGAQTEDEAIYFCALWYSNLWVFGGGTKLTVLGGGGSGGGGSGGGGSEVQLVESGGGLVQPKGSLKLSCAASGFTFNTYAMNWVRQAPGKGLEWVARIRSKYNNYATYYADSVKDRFTISRDDSQSILYLQMNNLKTEDTAMYYCVRHGNFGNSYVSWFAYWGQGTLVTVSSEPKSCDKTHTCPPCPAPEFEGGPSVFLFPPKPKDTLMISRTPEVTCVVVAVSHEDPEVKFNWYVDGVEVHNAKTKPREEQYNSTYRVVSVLTVLHQDWLNGKEYKCKVSNKALPAPIEKTISKAKGQPREPQVYTLPPSRDELTENQVSLTCLVKGFYPSDIAVEWESNGQPENNYKTTPPVLDSDGSFFLYSWLTVDKSRWQQGNVFSCSVMHEALHNHYTQKSLSLSPGK
chain 2: QVQLVQSGAEVKKPGSSVKVSCKASGYTFTSYWINWVRQAPGQGLEWIGHIYPNKNENYYNHKFKDKATLTVDKSTNTAYMELSSLRSEDTAVYYCTREFYGRQYYQAMDYWGQGTTLTVSSGGGGSGGGGSGGGGSDIQMTQSPSTLSASVGDRVTITCKASQNVGTAVAWYQQKPGKAPKLLIYWASTRHTGVPDRFSGSGSGTDFTLTISSLQPDDFATYYCQQFGRYPYTFGSGTKVEVKEPKSCDKTHTCPPCPAPEFEGGPSVFLFPPKPKDTLMISRTPEVTCVVVAVSHEDPEVKFNWYVDGVEVHNAKTKPREEQYNSTYRVVSVLTVLHQDWLNGKEYKCKVSNKALPAPIEKTISKAKGQPREPRVYTLPPSRDELTKNQVSLTCLVKGFYPSDIAVEWESNGQPENNYKTTPPVLVSDGSFTLYSKLTVDKSRWQQGNVFSCSVMHEALHNHYTQKSLSLSPGK
notes: Heterodimeric IgG1 Fc with EW-RVT and FEA mutations
B5: IL-5Rα(5R65)×CD3ε-scFv(L)/scFv-Fc (bispecific antibody)
chain 1: B2 chain 2 with E221D, F222Y, Q226S, Q229Y
chain 2: B2 chain 1
notes: Control in the scFv(L)/scFv-Fc format, built with 5R65, the parent antibody of 5R65.7; also called IL-5Rα(5R65)×CD3α-scFv(L)/scFv-Fc

Target: T1, human IL-5Rα expressed on the …
Test: cell-based or functional assay

Binder	24hr EC50 of T cell-mediated cytotoxicity (LDH release) against K562/IL-5Rα, activated PBMC, E:T 5:1
B1	0.00497 nM
B2	0.000857 nM
B3	0.0231 nM
B4	0.0147 nM

Target: human CD3ε on activated PBMC (human, UniProt P07766 23-207)
Test: cell-based or functional assay

Sequence of human CD3ε on activated PBMC (P07766 23-207): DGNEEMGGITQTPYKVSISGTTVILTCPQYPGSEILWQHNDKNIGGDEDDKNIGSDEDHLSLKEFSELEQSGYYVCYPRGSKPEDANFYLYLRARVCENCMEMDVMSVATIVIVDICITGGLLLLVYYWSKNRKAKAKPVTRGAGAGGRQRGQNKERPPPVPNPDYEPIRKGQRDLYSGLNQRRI

Binder	IFN-γ EC50 (pM), ELISA of supernatant after 24 h co-culture of activated PBMC and K562/IL-5Rα
B1	2340 pM
B2	770 pM
B3	2210 pM
B4	31000 pM

Target: T2, hIL-5Rα, purified recombinant protein
Test: BLI (Octet QKe), ratio of the KD values of Table 2

Binder	fold higher binding affinity for IL-5Rα than the Diabody-Fc format
B2	~2.1 fold

Target: T1, human IL-5Rα expressed on the …
Test: flow cytometry on K562/IL-5Rα cells, 50 nM antibody

Binder	binding result
B5	binds

Target: T3, CD3ε, commercially available (sinobiological, 10977-H08H) (UniProt P07766 23-126)
T3 construct: Bought protein
Test: BLI (Octet QKe), antibody captured on AHC sensor, antigen 125-4,000 nM, 1:1 model

T3 sequence (P07766 23-126 limits assumed): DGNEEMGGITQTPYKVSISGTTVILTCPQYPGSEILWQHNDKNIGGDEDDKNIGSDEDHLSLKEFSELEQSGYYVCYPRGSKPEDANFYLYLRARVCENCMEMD

Binder	Kd	koff	kon
B1	8.41 nM	0.00141 s⁻¹	167000 M⁻¹ s⁻¹
B2	3.61 nM	0.000634 s⁻¹	176000 M⁻¹ s⁻¹
B3	1.71 nM	0.000474 s⁻¹	278000 M⁻¹ s⁻¹
B4	4.62 nM	0.000827 s⁻¹	179000 M⁻¹ s⁻¹

Target: T2, hIL-5Rα, purified recombinant protein
Test: as above

Binder	Kd	koff	kon
B1	123 nM	0.000306 s⁻¹	2500 M⁻¹ s⁻¹
B2	59.8 nM	0.000171 s⁻¹	2850 M⁻¹ s⁻¹
B3	30.5 nM	0.00011 s⁻¹	3610 M⁻¹ s⁻¹
B4	22.9 nM	0.000708 s⁻¹	30900 M⁻¹ s⁻¹

Reference: patent EP4707301A1 (AJOU UNIVERSITY INDUSTRY-ACADEMIC COOPERATION FOUNDATION, dated 2026)
